Measurements published in publication PMC10783487.

Tests used:
[1] = biological target: T1, TbrCan2 E341A (Thermoanaerobacter brockii subsp. …, UniProt E8URK0 1-437, E341A); assay: EMSA
T1 sequence: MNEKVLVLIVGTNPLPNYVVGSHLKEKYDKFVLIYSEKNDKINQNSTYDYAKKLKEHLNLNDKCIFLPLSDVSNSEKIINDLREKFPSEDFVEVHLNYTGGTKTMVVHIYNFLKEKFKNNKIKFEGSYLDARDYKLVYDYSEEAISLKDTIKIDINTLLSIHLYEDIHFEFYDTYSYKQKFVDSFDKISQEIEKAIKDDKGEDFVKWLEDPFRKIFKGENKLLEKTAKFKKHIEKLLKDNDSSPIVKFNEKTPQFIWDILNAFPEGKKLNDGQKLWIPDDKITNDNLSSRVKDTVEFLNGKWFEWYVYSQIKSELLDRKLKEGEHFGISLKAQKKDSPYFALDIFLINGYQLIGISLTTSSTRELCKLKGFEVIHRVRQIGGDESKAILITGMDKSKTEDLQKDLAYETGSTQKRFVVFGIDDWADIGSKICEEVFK

[2] = biological target: T1, TbrCan2 E341A; assay: crystal structure 2.4 A
[3] = biological target: T1, TbrCan2 E341A; assay: crystal structure 2.3 A
[4] = biological target: T2, TbrCan2 E364R (Thermoanaerobacter brockii subsp. …, UniProt E8URK0 1-437, E364R); assay: crystal structure
T2 sequence: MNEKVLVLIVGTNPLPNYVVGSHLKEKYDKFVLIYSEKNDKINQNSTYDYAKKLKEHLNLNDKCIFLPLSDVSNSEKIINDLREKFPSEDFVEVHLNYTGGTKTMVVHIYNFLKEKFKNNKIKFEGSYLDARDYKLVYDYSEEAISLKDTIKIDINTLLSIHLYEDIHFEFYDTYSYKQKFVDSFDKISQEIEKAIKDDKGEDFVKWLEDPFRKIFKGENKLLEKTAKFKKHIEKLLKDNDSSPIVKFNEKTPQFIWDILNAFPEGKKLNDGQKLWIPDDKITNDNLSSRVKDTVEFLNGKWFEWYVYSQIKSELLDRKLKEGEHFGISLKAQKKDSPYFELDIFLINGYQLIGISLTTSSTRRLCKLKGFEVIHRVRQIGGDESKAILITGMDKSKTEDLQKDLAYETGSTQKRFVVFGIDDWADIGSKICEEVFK

[5] = biological target: T1, TbrCan2 E341A; assay: crystal structure 2.0 A

B1: rA15 (ssRNA)
RNA: AAAAAAAAAAAAAAA
- binding result [1]: binds

B2: rU15 (ssRNA)
RNA: UUUUUUUUUUUUUUU
- binding result [1]: no binding

B3: U7-G3-U20 RNA (rKJ10) (ssRNA)
RNA: UUUUUUUGGGUUUUUUUUUUUUUUUUUUUU
- binding result [1]: no binding

B4: T7-G3-T20 DNA (dKJ72) (ssDNA)
DNA: TTTTTTTGGGTTTTTTTTTTTTTTTTTTTT
- binding result [1]: no binding

B5: TTTAAA (dKJ44) (ssDNA)
DNA: TTTAAA
- binding result [2]: binds

B6: dC6 (ssDNA)
DNA: CCCCCC
- binding result [3]: binds

B7: dT6 (dKJ46) (ssDNA)
DNA: TTTTTT
- binding result [4]: binds

B8: dT15 (dKJ62) (ssDNA)
DNA: TTTTTTTTTTTTTTT
- binding result [1]: no binding

B9: dA6 (dKJ42) (ssDNA)
DNA: AAAAAA
- binding result [5]: binds
